For series [1], the system named is Ct Ycg1 24-1006;Ct Brn1 515-634 (Chaetomium thermophilum;Chaetomium thermophilum). Put plainly: EMSA. The settings on record: protein conc. at which free DNA is depleted; EMSA: 10 mM HEPES-KOH pH 7.5, 125 mM NaCl, 5 mM MgCl2, 1 mM DTT, 30 min, gels at 4 C, 0.2 uM 35-bp or 10 nM 2.1-kb DNA; ITC: 25 mM Tris-HCl pH 7.5, 200 mM ….
Series [2] relates to Ct Ycg1 24-1006;Ct Brn1 PhiD 515-634 (Chaetomium thermophilum;Chaetomium thermophilum). Put plainly: EMSA. The settings on record: protein conc. at which free DNA is depleted; EMSA: 10 mM HEPES-KOH pH 7.5, 125 mM NaCl, 5 mM MgCl2, 1 mM DTT, 30 min, gels at 4 C, 0.2 uM 35-bp or 10 nM 2.1-kb DNA; ITC: 25 mM Tris-HCl pH 7.5, 200 mM ….
In series [3] the test system is Ct Ycg1 24-1006;Ct Brn1 deltaN 539-634 (Chaetomium thermophilum;Chaetomium thermophilum). Put plainly: EMSA. The settings on record: protein conc. at which free DNA is depleted; EMSA: 10 mM HEPES-KOH pH 7.5, 125 mM NaCl, 5 mM MgCl2, 1 mM DTT, 30 min, gels at 4 C, 0.2 uM 35-bp or 10 nM 2.1-kb DNA; ITC: 25 mM Tris-HCl pH 7.5, 200 mM ….
Series [4] deals with Ct Ycg1 24-1006;Ct Brn1 515-634 (Chaetomium thermophilum;Chaetomium thermophilum). Put plainly: ITC. The settings on record: 2 mM Mg2+, 25 C; EMSA: 10 mM HEPES-KOH pH 7.5, 125 mM NaCl, 5 mM MgCl2, 1 mM DTT, 30 min, gels at 4 C, 0.2 uM 35-bp or 10 nM 2.1-kb DNA; ITC: 25 mM Tris-HCl pH 7.5, 200 mM ….
Series [5] deals with T1, Sc Ycg1 crystallization construct;Sc Brn1 short kleisin loop (Saccharomyces cerevisiae;Saccharomyces …, UniProt Q06680;P38170 6-932;384-529, del499-555|del418-444).
T1 sequence 1: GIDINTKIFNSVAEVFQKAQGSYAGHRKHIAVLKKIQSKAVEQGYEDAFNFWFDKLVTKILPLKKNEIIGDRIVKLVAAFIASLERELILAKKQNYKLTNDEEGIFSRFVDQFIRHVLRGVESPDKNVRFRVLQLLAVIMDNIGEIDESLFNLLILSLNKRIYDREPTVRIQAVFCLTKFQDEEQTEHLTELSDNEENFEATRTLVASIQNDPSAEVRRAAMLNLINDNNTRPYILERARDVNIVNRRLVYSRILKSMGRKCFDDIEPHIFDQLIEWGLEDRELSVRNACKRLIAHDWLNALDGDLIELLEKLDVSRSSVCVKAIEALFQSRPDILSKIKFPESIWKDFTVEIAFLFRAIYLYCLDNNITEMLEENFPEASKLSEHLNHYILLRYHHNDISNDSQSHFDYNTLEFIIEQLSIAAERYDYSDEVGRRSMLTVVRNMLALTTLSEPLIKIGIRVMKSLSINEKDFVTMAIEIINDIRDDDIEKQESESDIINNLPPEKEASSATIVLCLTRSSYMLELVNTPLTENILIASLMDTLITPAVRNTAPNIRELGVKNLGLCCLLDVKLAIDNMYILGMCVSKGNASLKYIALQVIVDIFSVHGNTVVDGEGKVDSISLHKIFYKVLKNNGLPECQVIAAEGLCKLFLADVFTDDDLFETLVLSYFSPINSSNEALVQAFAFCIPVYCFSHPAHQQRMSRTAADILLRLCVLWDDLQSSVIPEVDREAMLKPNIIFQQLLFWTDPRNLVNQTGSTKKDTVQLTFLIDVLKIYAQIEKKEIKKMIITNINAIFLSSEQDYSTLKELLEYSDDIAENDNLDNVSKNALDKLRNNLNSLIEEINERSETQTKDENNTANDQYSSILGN
T1 sequence 2: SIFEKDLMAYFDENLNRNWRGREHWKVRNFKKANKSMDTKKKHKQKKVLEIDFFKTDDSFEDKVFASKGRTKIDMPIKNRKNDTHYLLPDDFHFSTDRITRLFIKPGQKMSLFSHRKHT
Put plainly: X-ray crystallography; 5 mM MgSO4; EMSA: 10 mM HEPES-KOH pH 7.5, 125 mM NaCl, 5 mM MgCl2, 1 mM DTT, 30 min, gels at 4 C, 0.2 uM 35-bp or 10 nM 2.1-kb DNA; ITC: 25 mM Tris-HCl pH 7.5, 200 mM NaCl, 2 mM MgCl2, 1 mM BME, 25 C. The settings on record: protein: recombinant;recombinant; tags: untagged;N-terminal His6-HRV3C; copies: 1;1; blunt, self-complementary.

Series [6] has as its target T2, Sc Ycg1 crystallization construct;Sc Brn1 384-529 (Saccharomyces cerevisiae;Saccharomyces …, UniProt Q06680;P38170 6-932;384-529, del499-555|).
T2 sequence 1: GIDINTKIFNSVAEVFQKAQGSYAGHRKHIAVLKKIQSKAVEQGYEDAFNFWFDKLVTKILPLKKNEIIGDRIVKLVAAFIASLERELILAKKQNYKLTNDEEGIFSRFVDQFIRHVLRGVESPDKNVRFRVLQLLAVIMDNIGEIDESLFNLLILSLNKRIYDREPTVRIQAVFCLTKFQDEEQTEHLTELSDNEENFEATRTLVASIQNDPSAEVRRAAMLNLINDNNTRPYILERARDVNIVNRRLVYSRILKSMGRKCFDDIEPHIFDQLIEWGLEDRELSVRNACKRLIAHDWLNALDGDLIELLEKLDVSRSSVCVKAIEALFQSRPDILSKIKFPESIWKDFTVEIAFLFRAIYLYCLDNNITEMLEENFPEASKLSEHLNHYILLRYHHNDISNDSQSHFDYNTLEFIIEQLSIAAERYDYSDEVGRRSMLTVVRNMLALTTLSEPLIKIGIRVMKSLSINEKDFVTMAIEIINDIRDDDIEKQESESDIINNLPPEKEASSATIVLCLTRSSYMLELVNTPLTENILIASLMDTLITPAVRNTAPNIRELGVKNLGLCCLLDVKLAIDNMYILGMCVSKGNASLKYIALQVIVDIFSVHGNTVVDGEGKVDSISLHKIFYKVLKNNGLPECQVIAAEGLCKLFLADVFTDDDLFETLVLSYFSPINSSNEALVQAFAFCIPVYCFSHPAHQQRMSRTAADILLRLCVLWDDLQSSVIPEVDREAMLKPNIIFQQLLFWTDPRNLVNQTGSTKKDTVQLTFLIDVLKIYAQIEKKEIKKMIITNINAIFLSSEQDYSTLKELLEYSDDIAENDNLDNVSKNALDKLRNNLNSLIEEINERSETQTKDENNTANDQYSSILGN
T2 sequence 2: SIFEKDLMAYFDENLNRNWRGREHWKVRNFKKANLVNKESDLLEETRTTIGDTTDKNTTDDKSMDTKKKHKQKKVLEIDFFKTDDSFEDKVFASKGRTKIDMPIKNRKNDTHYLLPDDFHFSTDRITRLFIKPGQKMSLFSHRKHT
Put plainly: X-ray crystallography; crystal form I, 2.98 A, 5 mM MgSO4; EMSA: 10 mM HEPES-KOH pH 7.5, 125 mM NaCl, 5 mM MgCl2, 1 mM DTT, 30 min, gels at 4 C, 0.2 uM 35-bp or 10 nM 2.1-kb DNA; ITC: 25 mM Tris-HCl pH 7.5, 200 mM NaCl, 2 mM MgCl2, 1 mM BME, 25 C. The settings on record: protein: recombinant;recombinant; tags: untagged;N-terminal His6-HRV3C; copies: 1;1; blunt, self-complementary.

Series [7] concerns the target Sc Smc2;Sc Smc4;Sc Ycs4;Sc Ycg1;Sc Brn1 BC1/2 (Saccharomyces cerevisiae;Saccharomyces …, UniProt P38989;Q12267;Q06156;Q06680;P38170 1-1170;1-1418;1-1176;1-1035;1-754, ||||K409D;R411D;K414D;K451D;K452D;K454D;K456D;K457D). Put plainly: EMSA; EMSA: 10 mM HEPES-KOH pH 7.5, 125 mM NaCl, 5 mM MgCl2, 1 mM DTT, 30 min, gels at 4 C, 0.2 uM 35-bp or 10 nM 2.1-kb DNA; ITC: 25 mM Tris-HCl pH 7.5, 200 mM NaCl, 2 mM MgCl2, 1 mM BME, 25 C. The settings on record: protein: recombinant;recombinant;recombinant;recombinant;recombinant; tags: ;C-terminal StrepII x3;;;C-terminal His12-HA3; copies: 1;1;1;1;1; label: 5' 6-FAM on strand 1; blunt.

Series [8] concerns the target Sc Smc2;Sc Smc4;Sc Ycs4;Sc Brn1 (Saccharomyces cerevisiae;Saccharomyces …, UniProt P38989;Q12267;Q06156;P38170 1-1170;1-1418;1-1176;1-754, |||). In words: EMSA; lacks Ycg1; EMSA: 10 mM HEPES-KOH pH 7.5, 125 mM NaCl, 5 mM MgCl2, 1 mM DTT, 30 min, gels at 4 C, 0.2 uM 35-bp or 10 nM 2.1-kb DNA; ITC: 25 mM Tris-HCl pH 7.5, 200 mM NaCl, 2 mM MgCl2, 1 mM BME, 25 C. The settings on record: protein: recombinant;recombinant;recombinant;recombinant; tags: ;C-terminal StrepII x3;;C-terminal His12-HA3; copies: 1;1;1;1; label: 5' 6-FAM on strand 1; blunt.

Chain of Sc Smc2;Sc Smc4;Sc Ycs4;Sc Brn1 (P38989 whole entry, chain 1 of 4): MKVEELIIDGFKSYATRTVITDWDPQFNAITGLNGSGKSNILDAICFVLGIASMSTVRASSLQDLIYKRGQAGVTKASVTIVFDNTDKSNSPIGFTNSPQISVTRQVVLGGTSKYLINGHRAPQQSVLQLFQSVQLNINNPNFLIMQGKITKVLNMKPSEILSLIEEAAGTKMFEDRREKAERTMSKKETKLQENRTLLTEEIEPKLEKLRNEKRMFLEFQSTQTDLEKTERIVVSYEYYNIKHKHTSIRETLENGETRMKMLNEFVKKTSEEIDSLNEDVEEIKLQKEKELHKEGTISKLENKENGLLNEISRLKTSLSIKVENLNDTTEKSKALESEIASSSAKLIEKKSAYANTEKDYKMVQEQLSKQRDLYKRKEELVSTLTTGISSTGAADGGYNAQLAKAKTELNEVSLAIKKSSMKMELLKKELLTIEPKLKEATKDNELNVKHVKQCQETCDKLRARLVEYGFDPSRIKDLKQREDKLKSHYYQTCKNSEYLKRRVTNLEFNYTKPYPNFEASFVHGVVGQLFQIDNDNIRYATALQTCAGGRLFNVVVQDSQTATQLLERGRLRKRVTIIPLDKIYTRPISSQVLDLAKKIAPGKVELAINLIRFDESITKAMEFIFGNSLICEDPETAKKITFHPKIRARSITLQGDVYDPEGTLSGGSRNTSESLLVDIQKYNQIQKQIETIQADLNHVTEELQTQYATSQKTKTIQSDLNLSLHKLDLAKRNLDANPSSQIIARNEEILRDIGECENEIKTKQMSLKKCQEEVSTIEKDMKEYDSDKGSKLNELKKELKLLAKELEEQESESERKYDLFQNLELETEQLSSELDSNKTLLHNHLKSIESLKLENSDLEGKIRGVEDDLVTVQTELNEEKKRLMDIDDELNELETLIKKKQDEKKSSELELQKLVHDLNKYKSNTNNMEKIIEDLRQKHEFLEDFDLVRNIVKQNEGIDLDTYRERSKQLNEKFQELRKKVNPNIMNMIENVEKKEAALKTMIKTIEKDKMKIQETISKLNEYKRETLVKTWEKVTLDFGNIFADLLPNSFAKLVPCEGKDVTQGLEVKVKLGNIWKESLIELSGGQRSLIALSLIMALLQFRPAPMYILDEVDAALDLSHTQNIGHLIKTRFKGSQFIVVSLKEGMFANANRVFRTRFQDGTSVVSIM
Chain of Sc Smc2;Sc Smc4;Sc Ycs4;Sc Brn1 (Q12267 whole entry, chain 2 of 4): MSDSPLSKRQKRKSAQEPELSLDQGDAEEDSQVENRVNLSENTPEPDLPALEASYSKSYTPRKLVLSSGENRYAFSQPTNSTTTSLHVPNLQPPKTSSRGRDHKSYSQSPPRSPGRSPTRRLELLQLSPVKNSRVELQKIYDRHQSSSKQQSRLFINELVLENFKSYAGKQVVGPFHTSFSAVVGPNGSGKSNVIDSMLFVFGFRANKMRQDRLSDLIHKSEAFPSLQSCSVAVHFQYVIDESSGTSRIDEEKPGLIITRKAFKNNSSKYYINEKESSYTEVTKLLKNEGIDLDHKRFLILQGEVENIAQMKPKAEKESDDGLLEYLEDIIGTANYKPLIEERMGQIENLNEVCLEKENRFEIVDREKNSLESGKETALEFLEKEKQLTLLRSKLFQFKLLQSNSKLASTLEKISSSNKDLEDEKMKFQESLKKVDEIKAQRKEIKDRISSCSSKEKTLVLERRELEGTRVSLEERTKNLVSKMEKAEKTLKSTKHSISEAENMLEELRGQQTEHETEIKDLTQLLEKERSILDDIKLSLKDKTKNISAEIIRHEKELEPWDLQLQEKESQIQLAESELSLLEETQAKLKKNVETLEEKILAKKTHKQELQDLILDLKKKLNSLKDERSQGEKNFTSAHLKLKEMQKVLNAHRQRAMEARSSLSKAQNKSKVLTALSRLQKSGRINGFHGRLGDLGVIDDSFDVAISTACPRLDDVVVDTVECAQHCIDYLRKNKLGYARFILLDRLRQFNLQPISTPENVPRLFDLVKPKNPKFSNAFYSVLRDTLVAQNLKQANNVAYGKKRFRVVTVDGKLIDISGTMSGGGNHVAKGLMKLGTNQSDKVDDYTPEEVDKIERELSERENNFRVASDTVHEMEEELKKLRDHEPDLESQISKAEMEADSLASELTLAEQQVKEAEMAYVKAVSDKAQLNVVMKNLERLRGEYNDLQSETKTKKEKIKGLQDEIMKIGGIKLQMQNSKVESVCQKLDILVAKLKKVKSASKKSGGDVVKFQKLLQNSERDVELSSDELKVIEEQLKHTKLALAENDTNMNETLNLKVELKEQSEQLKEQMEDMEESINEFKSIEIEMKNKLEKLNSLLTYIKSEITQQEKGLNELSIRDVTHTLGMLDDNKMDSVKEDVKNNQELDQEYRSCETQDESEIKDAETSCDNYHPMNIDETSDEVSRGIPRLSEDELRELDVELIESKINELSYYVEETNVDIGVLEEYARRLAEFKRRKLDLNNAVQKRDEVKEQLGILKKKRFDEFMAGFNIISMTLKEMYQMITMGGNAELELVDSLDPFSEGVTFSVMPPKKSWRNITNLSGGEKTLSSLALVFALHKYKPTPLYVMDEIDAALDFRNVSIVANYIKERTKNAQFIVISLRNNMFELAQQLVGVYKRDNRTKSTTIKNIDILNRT
Chain of Sc Smc2;Sc Smc4;Sc Ycs4;Sc Brn1 (Q06156 whole entry, chain 3 of 4): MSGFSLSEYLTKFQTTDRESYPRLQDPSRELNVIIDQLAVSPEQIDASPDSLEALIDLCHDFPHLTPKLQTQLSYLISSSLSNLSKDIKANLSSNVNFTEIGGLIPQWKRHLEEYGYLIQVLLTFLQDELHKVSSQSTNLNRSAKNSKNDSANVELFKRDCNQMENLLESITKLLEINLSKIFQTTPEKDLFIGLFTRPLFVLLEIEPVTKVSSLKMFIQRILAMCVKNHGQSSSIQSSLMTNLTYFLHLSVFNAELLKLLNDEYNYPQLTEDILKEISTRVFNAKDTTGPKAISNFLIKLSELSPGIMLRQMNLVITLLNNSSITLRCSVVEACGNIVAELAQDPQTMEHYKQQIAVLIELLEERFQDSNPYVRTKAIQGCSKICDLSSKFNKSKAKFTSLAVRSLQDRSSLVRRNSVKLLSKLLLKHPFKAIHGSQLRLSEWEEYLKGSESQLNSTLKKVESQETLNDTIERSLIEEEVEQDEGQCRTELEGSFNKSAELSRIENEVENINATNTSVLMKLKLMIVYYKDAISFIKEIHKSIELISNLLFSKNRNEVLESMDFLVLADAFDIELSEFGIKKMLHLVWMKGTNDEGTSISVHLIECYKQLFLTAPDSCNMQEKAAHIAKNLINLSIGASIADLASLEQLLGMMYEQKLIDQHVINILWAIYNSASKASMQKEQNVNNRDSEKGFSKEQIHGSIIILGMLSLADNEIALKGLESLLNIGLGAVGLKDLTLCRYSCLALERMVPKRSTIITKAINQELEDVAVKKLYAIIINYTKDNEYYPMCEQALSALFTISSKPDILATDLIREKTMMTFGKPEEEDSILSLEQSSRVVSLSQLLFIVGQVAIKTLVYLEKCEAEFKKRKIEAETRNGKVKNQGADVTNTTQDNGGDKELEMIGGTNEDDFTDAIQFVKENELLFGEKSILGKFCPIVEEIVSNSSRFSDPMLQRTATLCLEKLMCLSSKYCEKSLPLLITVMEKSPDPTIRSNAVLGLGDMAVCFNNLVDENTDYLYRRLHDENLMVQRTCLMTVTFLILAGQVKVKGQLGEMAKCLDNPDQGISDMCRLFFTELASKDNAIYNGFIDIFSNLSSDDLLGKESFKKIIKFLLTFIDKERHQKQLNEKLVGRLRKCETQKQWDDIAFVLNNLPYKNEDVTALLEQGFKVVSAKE
Chain of Sc Smc2;Sc Smc4;Sc Ycs4;Sc Brn1 (P38170 whole entry, chain 4 of 4): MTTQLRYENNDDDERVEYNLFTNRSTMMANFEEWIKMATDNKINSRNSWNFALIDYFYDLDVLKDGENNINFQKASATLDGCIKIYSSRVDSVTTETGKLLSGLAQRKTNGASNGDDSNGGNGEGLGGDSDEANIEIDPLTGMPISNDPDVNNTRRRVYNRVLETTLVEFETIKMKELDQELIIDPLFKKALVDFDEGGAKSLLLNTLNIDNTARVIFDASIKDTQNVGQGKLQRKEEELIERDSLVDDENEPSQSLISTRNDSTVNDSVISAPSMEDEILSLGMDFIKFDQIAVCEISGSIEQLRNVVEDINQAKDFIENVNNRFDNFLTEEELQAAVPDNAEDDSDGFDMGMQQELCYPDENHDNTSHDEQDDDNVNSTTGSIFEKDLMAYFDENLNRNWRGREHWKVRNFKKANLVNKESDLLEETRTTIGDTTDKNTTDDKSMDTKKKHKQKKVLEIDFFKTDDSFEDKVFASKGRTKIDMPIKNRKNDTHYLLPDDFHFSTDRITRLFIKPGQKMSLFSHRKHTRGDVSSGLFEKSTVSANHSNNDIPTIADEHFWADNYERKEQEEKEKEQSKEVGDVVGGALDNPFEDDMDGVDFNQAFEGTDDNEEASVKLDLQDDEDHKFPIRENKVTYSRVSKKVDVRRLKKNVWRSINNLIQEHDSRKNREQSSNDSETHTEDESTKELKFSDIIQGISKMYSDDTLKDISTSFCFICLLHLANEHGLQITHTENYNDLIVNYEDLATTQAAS

2.1-kb circular supercoiled plasmid: the binding signal in series [1] amounted to 21 nM; in series [2] it was 83 nM; in series [3] it was 83 nM.
The molecule “CCTATAGTGAGTCACAATTCACTGG (double strand) [25-bp dsDNA]” yielded a Kd in series [4] of 1700 nM.
As for “CCTATAGTGAGTCGTTCGATATTACAATTCACTGG (double strand) [35-bp dsDNA]”, the binding signal in series [1], in series [2] and in series [3] was 800 nM each time.

B1: 18-bp palindromic dsDNA (dsDNA)
DNA 1: GATGTGTAGCTACACATC
DNA 2: GATGTGTAGCTACACATC
As for B1, the binding result in series [5] and in series [6] was “binds” in each case.

B2: 35-bp dsDNA (dsDNA)
DNA 1: CCTATAGTGAGTCGTTCGATATTACAATTCACTGG
DNA 2: CCAGTGAATTGTAATATCGAACGACTCACTATAGG
As for B2, the binding result in series [7] and in series [8] was “no binding” each time.

Values taken from publication PMC5651216, “Structural Basis for a Safety-Belt Mechanism That Anchors Condensin to Chromosomes”.
